Data taken from US20030022275, “HUMAN NK-3 RELATED PROSTATE SPECIFIC GENE-1” (published 2003).

B1: C site (NKX2.1 consensus, CAAG core) (dsDNA)
DNA 1: CACTGCCCAGTCAAGTGTTCTTGA
DNA 2: TCAAGAACACTTGACTGGGCAGTG
B2: site 6-19 (mutated TAAT core) (dsDNA)
DNA 1: ACACTACTTGGAGGC
DNA 2: GCCTCCAAGTAGTGT
B3: mutated C site (CACG) (dsDNA)
DNA 1: CACTGCCCAGTCACGTGTTCGTGA
DNA 2: TCACGAACACGTGACTGGGCAGTG

How the values were obtained:
[1] = molecular target: T1, NKX3.1 homeodomain (NKX3.1HD) (Homo sapiens, UniProt Q99801 SEQ:122-188); test: EMSA; human protein stated to behave identically to murine in DNA binding; conditions: tags: N-terminal 6xHis (pQE-9, E. coli); label: 32P
Method: (§1) The DNA binding experiments were performed as follows. Briefly, increasing amounts of protein were incubated in binding buffer [10 mM Tris-HCl ([…]), 50 mM NaCl, 5% glycerol, 5% sucrose, 0.2 mM EDTA, 7.5 mM MgCl₂, 0.5 mg/mL bovine serum albumin, 0.1% NP-40, 10 mM DTT, 500 μg of poly-didC] with 4×10⁴ cpm of ³²P-labeled, double stranded oligonucleotide for 20 min at room temperature. The sequences of the DNA binding sites were as follows (top strand shown):
(§2) The DNA binding specificity of NKX3.1HD was examined by gel mobility shift analysis using various DNA sites identified for NK-like and Antennapedia-like homeodomains. The DNA sites were as follows: (i) the consensus DNA site for the NKX2.1 homeodomain (TCAAGTG) (Guazzi, S. et al., EMBO J. 9:3631-3639 (1990)) and a mutated version of this site that contains nucleotide substitutions within the CAAG core (TCACGTG); and (ii) the consensus DNA site identified for an Antennapedia-like homeodomain (Msx1) (CTAATTG), a mutated version of this site that contains nucleotide substitutions within the TAAT core (CTACTTG), or one that contains nucleotide substitutions 3′ of the TAAT core (CTAATGG) (Catron, K. M. et al., Mol. Cell. Biol. 13;2354-2365 (1993); Guazzi, S. et al., EMBO J. 9:3631-3639 (1990)). […]

[2] = molecular target: T1, NKX3.1 homeodomain (NKX3.1HD); test: EMSA; human protein stated to behave identically to murine; conditions: tags: N-terminal 6xHis (pQE-9, E. coli); label: 32P
Method: as §1, §2

Binder | binding result [1] | binding result [2]
B1 | binds | 
B2 |  | no binding
B3 |  | no binding
